The target in this experiment is T1, integrin α4β1 (mouse, UniProt Q00651 41-1039; P09055 21-798).
T1 construct: whole, on cells
Nature of the experiment: flow cytometry, soluble ligand on mouse Tregs. The protocol: Splenic lymphocytes were isolated from Foxp3^GFP mice and were washed and resuspended in HBSS containing 0.1% BSA and 1 mM Ca²⁺/Mg²⁺, prior to incubation with integrin ligands for […] at 37° C. in the presence of IL-2 (10 ug/ml), rat-PC61 (5 ug/ml, Bioxcell), rat-rIgG (5 ug/ml, Bioxcell), murine-PC61 (5 ug/ml) and murine-IgG (5 ug/ml, Bioxcell). Cells were then incubated with AlexFluor647-conjugated anti-human IgG (1:200) for […] at 4° C. Then cells were washed twice before flow cytometry analysis using an Accuri C6 Plus (BD Biosciences). Data were analyzed using FlowJo software.

T1 sequence (Q00651 41-1039, chain 1 of 2): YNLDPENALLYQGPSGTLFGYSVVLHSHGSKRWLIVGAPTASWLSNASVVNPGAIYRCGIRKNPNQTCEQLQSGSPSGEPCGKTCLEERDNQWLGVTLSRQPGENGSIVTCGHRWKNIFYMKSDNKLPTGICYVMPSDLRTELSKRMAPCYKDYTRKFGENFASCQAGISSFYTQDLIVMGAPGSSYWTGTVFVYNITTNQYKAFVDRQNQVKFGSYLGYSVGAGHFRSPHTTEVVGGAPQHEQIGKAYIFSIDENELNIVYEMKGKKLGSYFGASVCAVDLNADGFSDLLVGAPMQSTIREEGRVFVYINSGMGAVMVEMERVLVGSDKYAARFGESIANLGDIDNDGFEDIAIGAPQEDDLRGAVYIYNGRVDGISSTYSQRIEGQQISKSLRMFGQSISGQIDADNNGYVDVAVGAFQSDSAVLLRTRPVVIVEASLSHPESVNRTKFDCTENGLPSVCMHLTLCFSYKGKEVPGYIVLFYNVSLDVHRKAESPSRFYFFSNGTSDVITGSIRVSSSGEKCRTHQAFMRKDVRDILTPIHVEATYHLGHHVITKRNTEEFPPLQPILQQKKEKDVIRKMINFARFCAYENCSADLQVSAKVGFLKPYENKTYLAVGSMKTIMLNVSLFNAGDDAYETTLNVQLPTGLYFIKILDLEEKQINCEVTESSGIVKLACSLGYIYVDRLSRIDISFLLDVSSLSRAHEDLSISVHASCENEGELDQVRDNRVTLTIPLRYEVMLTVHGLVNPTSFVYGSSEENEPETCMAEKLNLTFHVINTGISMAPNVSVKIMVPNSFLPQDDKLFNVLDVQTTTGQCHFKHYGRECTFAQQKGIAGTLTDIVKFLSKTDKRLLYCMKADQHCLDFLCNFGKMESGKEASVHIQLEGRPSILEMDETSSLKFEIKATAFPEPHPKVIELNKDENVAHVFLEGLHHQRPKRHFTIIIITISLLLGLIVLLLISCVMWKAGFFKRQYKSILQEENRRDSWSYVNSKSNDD
T1 sequence (P09055 21-798, chain 2 of 2): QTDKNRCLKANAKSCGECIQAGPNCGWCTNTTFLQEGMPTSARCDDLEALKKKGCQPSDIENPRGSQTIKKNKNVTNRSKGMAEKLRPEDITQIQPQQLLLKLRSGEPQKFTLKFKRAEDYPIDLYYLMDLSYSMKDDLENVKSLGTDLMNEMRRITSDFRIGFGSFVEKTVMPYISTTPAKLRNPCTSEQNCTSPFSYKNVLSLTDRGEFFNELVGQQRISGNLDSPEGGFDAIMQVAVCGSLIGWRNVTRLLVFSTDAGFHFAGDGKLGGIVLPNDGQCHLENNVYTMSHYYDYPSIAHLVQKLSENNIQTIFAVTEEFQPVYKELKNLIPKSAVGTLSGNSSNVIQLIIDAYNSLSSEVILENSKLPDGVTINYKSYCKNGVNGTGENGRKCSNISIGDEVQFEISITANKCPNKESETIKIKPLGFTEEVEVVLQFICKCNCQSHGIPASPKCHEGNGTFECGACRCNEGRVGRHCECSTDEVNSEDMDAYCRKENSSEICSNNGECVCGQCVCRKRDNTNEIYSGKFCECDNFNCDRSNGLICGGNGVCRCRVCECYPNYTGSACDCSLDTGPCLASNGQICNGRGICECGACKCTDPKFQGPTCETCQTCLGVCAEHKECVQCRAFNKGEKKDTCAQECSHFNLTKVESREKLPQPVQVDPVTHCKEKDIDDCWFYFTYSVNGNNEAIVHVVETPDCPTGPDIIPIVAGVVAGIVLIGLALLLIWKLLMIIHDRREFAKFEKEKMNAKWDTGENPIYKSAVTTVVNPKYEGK

B1: purified mouse VCAM-Fc (Fc fusion, UniProt P29533 25-698, looked up)
chain: FKIEISPEYKTIAQIGDSMALTCSTTGCESPLFSWRTQIDSPLNAKVRTEGSKSVLTMEPVSFENEHSYLCTATCGSGKLERSIHVDIYSFPKDPEIQFSGPLEVGKPVTVKCLAPDIYPVYRLEIDLFKGDQLMNRQEFSSEEMTKSLETKSLEVTFTPVIEDIGKALVCRAKLHIDQIDSTLKERETVKELQVYISPRNTTISVHPSTRLQEGGAVTMTCSSEGLPAPEIFWGRKLDNEVLQLLSGNATLTLIAMRMEDSGVYVCEGVNLIGRDKAEVELVVQEKPFIVDISPGSQVAAQVGDSVVLTCAAIGCDSPSFSWRTQTDSPLNGVVRNEGAKSTLVLSSVGFEDEHSYLCAVTCLQRTLEKRTQVEVYSFPEDPVIKMSGPLVHGRPVTVNCTVPNVYPFDHLEIELLKGETTLMKKYFLEEMGIKSLETKILETTFIPTIEDTGKSLVCLARLHSGEMESEPKQRQSVQPLYVNVAPKETTIWVSPSPILEEGSPVNLTCSSDGIPAPKILWSRQLNNGELQPLSENTTLTFMSTKRDDSGIYVCEGINEAGISRKSVELIIQVSPKDIQLTVFPSKSVKEGDTVIISCTCGNVPETWIILKKKAKTGDMVLKSVDGSYTIRQAQLQDAGIYECESKTEVGSQLRSLTLDVKGKEHNKDYFSPE
notes: also called VCAM-1; soluble VCAM-1; not shown: Fc part, detected with anti-Human Fc
B1: the binding result was “binds”.

The record behind these values is patent publication US20220289855A1 (University of California, published 2022).
